Assay results from US20240294635A1 (CHIA TAI TIANQING PHARMACEUTICAL GROUP, published 2024).
Residue numbers refer to the chain shown, from its start. Names and notes keep the numbering of the source.

B1: Xi2H8 (antibody, human IgG4 S228P, kappa, V domains shown)
VH: QVQLKESGPGLVAPSQSLSITCTVSGFSLTNYGVHWVRQPPGKGLEWLGIIWAGGSTNYNSALMSRLSISKDNSKSQVFLKMNSLQTDDTAMYYCARDDYASMDYWGQGTSVTVSS
VL: DAFMTQTPLSLPVSLGDQASISCRSSQSLVHSNGNTYLHWYLQKPGQSPKLLIYKVSNRFSGVPDRFSGSGSGTDFTLKISRVEAEDLGVYFCSQSTHVPYTLGGGTKLEIKR
notes: mouse variable regions on human IgG4 (EU S228P) and human kappa constant regions; also called chimeric 2H8 antibody
B2: Xi16E5 (antibody, human IgG4 S228P, kappa, V domains shown)
VH: EVQLQQSGPELKKPGETVKISCKASGYTFTNYGMNWVKQVPGKGLKWMGWINTNTGEPTYAEEFKGRFAFSLETSARTAFLQINNLKNEDTATYFCTRFSHLRGPMDYWGQGASVTVSS
VL: B1 VL with F3V, N35Y, V83L, Y101P, L103F
notes: mouse variable regions on human IgG4 (EU S228P) and human kappa constant regions; also called chimeric 16E5 antibody
B3: Xi3F10 (antibody, human IgG4 S228P, kappa, V domains shown)
VH: EVQLQQSVAELMKPGASVKIYCKATGYTFSRYWIEWVKQRPGHGLEWIGEFIPGSDTTNFNEKFKGKATFTAEISSNTAYMQLSSLTSEDSAVYFCARGGLRRMDYWGQGTSVTVSS
VL: DIVMTQTPAIMSASPGEKVTMTCRASSSVSSTYLHWYQQKSGASPKLWIYTTSTLASGVPARFSGSGSGTSYSLTISSVEAEDAATYYCQQFSDSTWTFGGGTKLEIKR
notes: mouse variable regions on human IgG4 (EU S228P) and human kappa constant regions; also called chimeric 3F10 antibody
B4: Xi2B2 (antibody, human IgG4 S228P, kappa, V domains shown)
VH: EVMLVESGGGLVQPGGSLKLSCAASGFTFSNYYMSWVRQTPEKRLEWVAYISSGGGSTYYPDSVKGRFTISRDNAKNTLYLQMSSLKSEDTAMYYCAWFAYWGQGTLVTVSA
VL: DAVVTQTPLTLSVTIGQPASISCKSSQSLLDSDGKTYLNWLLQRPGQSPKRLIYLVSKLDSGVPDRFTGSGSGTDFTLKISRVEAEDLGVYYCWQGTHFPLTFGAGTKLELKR
notes: mouse variable regions on human IgG4 (EU S228P) and human kappa constant regions; also called chimeric 2B2 antibody
B5: Xi14A9 (antibody, human IgG4 S228P, kappa, V domains shown)
VH: EVQLQQSGAEVARPGASVKLSCTVSGFNIEDDYIEWVKQRPEQGLEWIGRIDPANDKTKYAPKFQDKATITGDTSSNTAYLQLSSLTSEDTAVYYCTRPGLRRYYSMDYWGQGTSVTVSS
VL: NIVLTQSPKSMSMSVGERVTLSCKASENVVSYVSWYQQKPEQSPKLLIYGASNRYTGVPDRFIGSGSSTDFTLIISSFQPEDLADYHCGQSYSYPLTFGAGTKLELKR
notes: mouse variable regions on human IgG4 (EU S228P) and human kappa constant regions; also called chimeric 14A9 antibody
B6: hz3F10-4.2 (antibody, human IgG4 S228P, kappa, V domains shown)
VH: QVQLVQSGAEVKKPGSSVKVSCKASGYTFSRYWIEWVRQAPGQGLEWMGEFIPGSDTTNYAQKFQGRVTITAEISTNTAYMELSSLRSEDTAVYYCARGGLRRMDYWGQGTLVTVSS
VL: DIQMTQSPSSLSASVGDRVTITCRASSSVSSTYLHWYQQKPGKAPKLLIYTTSTLASGVPSRFSGSGSGTSYTLTISSLQPEDFATYYCQQFSESTWTFGQGTKLEIKR
notes: humanized 3F10, full-length heavy and light chains
B7: hz16E5-1.3 (antibody, human IgG4 S228P, kappa)
heavy: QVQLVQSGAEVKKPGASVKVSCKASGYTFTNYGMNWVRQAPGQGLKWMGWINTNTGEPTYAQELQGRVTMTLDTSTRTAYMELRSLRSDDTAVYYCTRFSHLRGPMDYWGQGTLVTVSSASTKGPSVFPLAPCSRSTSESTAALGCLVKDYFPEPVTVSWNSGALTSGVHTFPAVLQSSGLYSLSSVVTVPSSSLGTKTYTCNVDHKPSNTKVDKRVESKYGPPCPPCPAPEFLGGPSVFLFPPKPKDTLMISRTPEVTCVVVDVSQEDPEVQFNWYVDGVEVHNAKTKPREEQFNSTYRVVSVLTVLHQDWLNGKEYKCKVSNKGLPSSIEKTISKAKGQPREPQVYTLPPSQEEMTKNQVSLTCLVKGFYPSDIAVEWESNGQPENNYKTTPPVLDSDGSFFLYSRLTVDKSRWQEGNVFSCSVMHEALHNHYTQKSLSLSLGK
light: DIQMTQSPSSLSASVGDRVTITCRSSQSLVHSNGYTYLHWYQQKPGKAPKLLIYKVSNRFSGVPSRFSGSGSGTDFTLTISSLQPEDFATYYCSQSTHVPPTFGQGTKLEIKRTVAAPSVFIFPPSDEQLKSGTASVVCLLNNFYPREAKVQWKVDNALQSGNSQESVTEQDSKDSTYSLSSTLTLSKADYEKHKVYACEVTHQGLSSPVTKSFNRGEC
notes: humanized 16E5, full-length heavy and light chains
B8: hz16E5-3.1 (antibody, human IgG4 S228P, kappa)
heavy: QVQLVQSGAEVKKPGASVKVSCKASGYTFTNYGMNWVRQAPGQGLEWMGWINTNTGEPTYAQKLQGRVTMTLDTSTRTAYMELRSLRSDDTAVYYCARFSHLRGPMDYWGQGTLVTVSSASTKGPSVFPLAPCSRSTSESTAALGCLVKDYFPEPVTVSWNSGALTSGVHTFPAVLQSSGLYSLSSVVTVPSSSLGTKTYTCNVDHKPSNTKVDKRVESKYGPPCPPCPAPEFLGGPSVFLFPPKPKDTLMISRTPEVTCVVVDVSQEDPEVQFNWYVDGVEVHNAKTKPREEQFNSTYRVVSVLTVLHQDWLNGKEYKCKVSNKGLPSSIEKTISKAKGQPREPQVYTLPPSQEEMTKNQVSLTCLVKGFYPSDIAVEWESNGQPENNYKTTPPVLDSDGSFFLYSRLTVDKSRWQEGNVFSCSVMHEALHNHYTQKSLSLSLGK
light: B7 light with I2A
notes: as for B7
B9: hz16E5-3.3 (antibody, human IgG4 S228P, kappa)
heavy: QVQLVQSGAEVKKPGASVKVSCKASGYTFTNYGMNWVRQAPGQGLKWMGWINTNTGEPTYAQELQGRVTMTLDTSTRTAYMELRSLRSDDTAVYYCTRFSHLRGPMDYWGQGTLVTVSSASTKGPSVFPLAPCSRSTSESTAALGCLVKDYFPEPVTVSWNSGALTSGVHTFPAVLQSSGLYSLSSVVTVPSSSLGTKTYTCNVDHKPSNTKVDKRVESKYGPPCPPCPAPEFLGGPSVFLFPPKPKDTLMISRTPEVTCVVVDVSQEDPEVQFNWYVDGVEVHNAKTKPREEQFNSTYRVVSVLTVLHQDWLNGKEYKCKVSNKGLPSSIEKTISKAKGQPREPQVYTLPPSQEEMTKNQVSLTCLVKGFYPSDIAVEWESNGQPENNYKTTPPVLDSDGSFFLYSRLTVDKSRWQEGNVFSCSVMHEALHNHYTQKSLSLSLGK
light: B7 light with I2A
notes: as for B7

These binders were tested against T1, CD47 on HL60 cells (UniProt Q08722 19-323, limits assumed) (assay: cell-based or functional assay).

| rate of phagocytosis, antibody 1 µg/mL [%] | rate of phagocytosis, antibody 10 µg/mL [%] | Binder |
| --- | --- | --- |
| 7.1 | 3.5 | B1 |
| 11.5 | 28.8 | B2 |
| 65.7 | 59.8 | B3 |
| 7.3 | 4.1 | B4 |
| 54.2 | 44.7 | B5 |

What follows are binders tested against T2, cynomolgus/rhesus macaque CD47 protein, His Tag (ACRObiosystems, Cat. No. CD7-C52H1) (cynomolgus monkey (cynomolgus/rhesus …, UniProt A0A2K5X523 19-141)) (assay: Biacore SPR, 25 C, antibody captured on CM5 chip).
T2 construct: bought reagent; also called Cynomolgus monkey CD47 protein
T2 sequence (A0A2K5X523 entry or part of it limits assumed): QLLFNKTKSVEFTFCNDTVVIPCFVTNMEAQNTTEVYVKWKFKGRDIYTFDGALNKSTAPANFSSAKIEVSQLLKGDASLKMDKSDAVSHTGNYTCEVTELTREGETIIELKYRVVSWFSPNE

| Kd [nM] | Binder |
| --- | --- |
| 1.25 | B1 |
| 2.92 | B2 |
| 1.04 | B3 |
| 1.2 | B4 |
| 1.58 | B5 |

What follows are binders tested against T3, human CD47 protein, His Tag (ACRObiosystems, Cat. No. CD7-H5227) (human, UniProt Q08722 19-139) (assay: Biacore SPR, 25 C, antibody captured on CM5 chip).
T3 construct: bought reagent; also called CD47-His; hCD47-His Tag; not shown: His tag

| Kd [nM] | Binder |
| --- | --- |
| 9.06 | B2 |
| 0.767 | B3 |
| 7.48 | B4 |
| 2.35 | B5 |

These binders were tested against T4, CD47 on Jurkat cells (UniProt Q08722 19-323, limits assumed) (assay: flow cytometry on Jurkat cells, competition with Human-SIRPα-mFc).
T4 construct: whole, on cells; Jurkat is a human T cell line
Procedure: The plate was incubated at room temperature for 1 h. After the plate was washed twice with PBS buffer, 100 μL of anti-CD47 chimeric antibodies (Table 7) was added to each well. 4-fold dilution was performed with PBS buffer from a starting concentration of 20 μg/mL, with 8 gradients obtained. The plate was incubated at room temperature for 1-2 h. […] The plate was incubated at room temperature for 1 h and washed 3 times with PBS buffer.

| IC50 [µg/mL] | Binder |
| --- | --- |
| 27 | B1 |
| 4.86 | B2 |
| 0.358 | B3 |
| 1.28 | B5 |

Molecular target: T1, CD47 on HL60 cells
Test: cell-based or functional assay
Remark: another data set of the same source

| rate of phagocytosis, antibody 1 µg/mL [%] | rate of phagocytosis, antibody 10 µg/mL [%] | Binder |
| --- | --- | --- |
| 46.2 | 31.7 | B6 |
| 3.03 | 4.33 | B7 |
| 6.37 | 24.2 | B8 |
| 11.6 | 4.7 | B9 |

What follows are binders tested against T5, human CD47 protein on CHO-K1-CD47 cells (human, UniProt Q08722 19-323) (assay: cell binding, CHO-K1-CD47 cells, high content imaging).
T5 construct: whole, on cells; also called CHO-K1 cells expressing human CD47 protein
Procedure: (§1) A cell binding assay of anti-CD47 antibodies (chimeric or humanized) was performed based on the binding to a CHO-K1 cell line stably expressing CD47. CHO-K1-CD47 cells (CHO-K1 cells expressing human CD47 protein) were added to each well of a 96-well plate (Eppendorf, Cat. No. C030730.119) at 1.2×10⁴ cells per well and incubated with anti-CD47 antibodies (20 μg/mL, 1:4 dilution in PBS) at room temperature for 1-2 h. […] The cells were incubated at room temperature for 30 min. The cells were washed three times with PBS buffer. A nuclear dye Hoechst (Sigma, Cat. No. B2261) was diluted with PBS buffer at a dilution ratio of 1:500 and then added to each well at 100 μL/well for staining for 10 min. The cells were washed 3 times with PBS and analyzed using a high content screening system (manufacturer: PerkinElmer; model: Operetta).

| EC50 [µg/mL] | Binder |
| --- | --- |
| 1.26 | B6 |
| 18.8 | B7 |
| 5.88 | B8 |
| 40.5 | B9 |

Each binder was assayed against T3, human CD47 protein, His Tag … (assay: ELISA, CD47-His coated, competition with Human-SIRPα-mFc).
Procedure: (§2) The plate was let stand at 2-8° C. overnight. The wells were aspirated to remove the coating buffer and blocked with 100 μL/well of a blocking solution (PBS with 1% (w/v) bovine serum albumin (BSA, Sigma, Cat. No. B2064-100G)) by incubation at 37° C. for 1 h. The 96-well plate was washed with a washing buffer (PBS with 0.01% (w/v) Tween 20 (Sigma, Cat. No. P9416-100ML)). […] After the 96-well plate was washed with PBS washing buffer, anti-CD47 chimeric antibodies or anti-CD47 humanized antibodies (see Table 8 for chimeric antibodies, and see Table 9 for humanized antibodies) were added. 4-fold dilution was performed with PBS buffer from a starting concentration of 20 μg/mL, with 8 gradients obtained. The plate was incubated at room temperature for 1.5 h. […] After the 96-well plate was washed with PBS buffer, 100 μL/well of a substrate solution TMB (TIANGEN, Cat. No. PA107-01) was added, and the plate was incubated at room temperature for color development for 10 min. 100 μL/well of 1 M H₂SO₄ was added to stop the reaction. Colorimetric signals were generated and read at 450 nm using a multifunctional microplate reader (manufacturer: PerkinElmer; model: EnVision). Data were analyzed using GraphPad Prism5, and EC₅₀ was calculated.

| IC50 [µg/mL] | Binder |
| --- | --- |
| 0.946 | B2 |
| 7.91 | B3 |
| 0.444 | B5 |

Molecular target: T3, human CD47 protein, His Tag …
Test: as above
Remark: another data set of the same source
Procedure: as §2

| IC50 [µg/mL] | Binder |
| --- | --- |
| 1.74 | B6 |
| 2.32 | B7 |
| 15.2 | B8 |
| 2 | B9 |

Each binder was assayed against T6, CD47 on the red cell surface (Homo sapiens (Human), UniProt Q08722 19-323) (assay: flow cytometry on fixed red cells, antibody 1 µg/mL).
Procedure: (§3) Anticoagulated blood was collected and well mixed with an equal amount of normal saline. The mixture was centrifuged at 2000 rpm/min for 5 min, and the supernatant was removed. […] In the first two washings, the mixture was centrifuged at 2000 rpm/min for 5 min, and in the last washing, the mixture was centrifuged at 2000 rpm/min for 10 min, and the supernatant was removed.

| MFI [MFI] | Binder |
| --- | --- |
| 4810 | B6 |
| 894 | B7 |
| 945 | B8 |
| 848 | B9 |

What follows are binders tested against T6, CD47 on the red cell surface (assay: flow cytometry on fixed red cells, antibody 10 µg/mL).
Procedure: as §3

| MFI [MFI] | Binder |
| --- | --- |
| 45600 | B6 |
| 4880 | B7 |
| 5140 | B8 |
| 3870 | B9 |

These binders were tested against T3, human CD47 protein, His Tag … (assay: Biacore SPR, 25 C, antibody captured on CM5 chip; Biacore at 25 C; antibody captured on the chip, soluble CD47-His as analyte).

| Kd [nM] | Binder |
| --- | --- |
| 0.35 | B1 |

Each binder was assayed against T6, CD47 on the red cell surface (assay: cell-based or functional assay).

| red cell agglutination, lowest concentration causing it [µg/mL] | Binder |
| --- | --- |
| 3.3 | B6 |
| 3.3 | B7 |
| 3.3 | B8 |
| 3.3 | B9 |

Molecular target: T6, CD47 on the red cell surface
Test: flow cytometry on fixed red cells, antibody 10 µg/mL
Remark: another data set of the same source
Procedure: as §3

| MFI [MFI] | Binder |
| --- | --- |
| 5300 | B1 |
| 3320 | B2 |
| 61800 | B3 |
| 608 | B4 |
| 32800 | B5 |

Molecular target: T2, cynomolgus/rhesus macaque CD47 protein, …
Test: Biacore SPR, 25 C, antibody captured on CM5 chip
Remark: another data set of the same source

| Kd [nM] | Binder |
| --- | --- |
| 1.86 | B6 |
| 2.73 | B7 |
| 3.28 | B8 |
| 1.87 | B9 |

Molecular target: T3, human CD47 protein, His Tag …
Test: Biacore SPR, 25 C, antibody captured on CM5 chip
Remark: another data set of the same source

| Kd [nM] | Binder |
| --- | --- |
| 1.34 | B6 |
| 15.3 | B7 |
| 6.28 | B8 |
| 7.13 | B9 |

These binders were tested against T3, human CD47 protein, His Tag … (assay: ELISA, plate coated with CD47-His).
Procedure: (§4) An ELISA binding assay was performed based on human CD47 protein and anti-CD47 chimeric antibodies or anti-CD47 humanized antibodies. […] The wells were aspirated, and non-specific binding sites were blocked by adding 100 L/well of a blocking solution (PBS with 1% (w/v) bovine serum albumin (BSA, Sigma, Cat. No. B2064-100G)) and incubating the plate at 37° C. for 1 h. After the 96-well plate was washed three times with a washing buffer (PBS with 0.01% (w/v) Tween 20 (Sigma, Cat. No. P9416-100ML)), 100 μL/well of 1:4 serial dilutions (from 30 g/mL) of anti-CD47 antibodies (see Table 3 for chimeric antibodies, and see Table 4 for humanized antibodies) in blocking solution were added, and the plate was incubated at room temperature for 2 h. […] After the 96-well plate was washed, 100 μL/well of a substrate solution TMB (TIANGEN, Cat. No. PA107-01) was added, and the 96-well plate was incubated at room temperature for 10 min. 100 μL/well of a stop solution (1 M H₂SO₄) was added to stop the reaction. Colorimetric signals were generated and read at 450 nm using a multifunctional microplate reader (manufacturer: PerkinElmer; model: EnVision). Data were analyzed using GraphPad Prism5, and EC₅₀ was calculated.

| EC50 [µg/mL] | Binder |
| --- | --- |
| 0.181 | B6 |
| 0.138 | B7 |
| 0.14 | B8 |
| 0.241 | B9 |

The binders below were run against T3, human CD47 protein, His Tag … (assay: ELISA, CD47-His coated, competition with Human-SIRPα-mFc; Blocking ELISA; CD47-His coated on plate, SIRPα-mFc bound first, antibody from 20 µg/mL, mouse Fc detected).
Procedure: as §2

| IC50 [µg/mL] | Binder |
| --- | --- |
| 0.00468 | B1 |

Molecular target: T5, human CD47 protein on CHO-K1-CD47 cells
Test: cell binding, CHO-K1-CD47 cells, high content imaging
Remark: another data set of the same source
Procedure: as §1

| EC50 [µg/mL] | Binder |
| --- | --- |
| 2.03 | B2 |
| 19.8 | B3 |
| 30.8 | B4 |
| 0.541 | B5 |

Molecular target: T3, human CD47 protein, His Tag …
Test: ELISA, plate coated with CD47-His
Remark: another data set of the same source
Procedure: as §4

| EC50 [µg/mL] | Binder |
| --- | --- |
| 0.0879 | B2 |
| 1.11 | B3 |
| 0.349 | B4 |
| 0.273 | B5 |

Molecular target: T6, CD47 on the red cell surface
Test: flow cytometry on fixed red cells, antibody 1 µg/mL
Remark: another data set of the same source
Procedure: as §3

| MFI [MFI] | Binder |
| --- | --- |
| 952 | B1 |
| 1310 | B2 |
| 36100 | B3 |
| 656 | B4 |
| 26500 | B5 |
